This test deals with SARS-CoV-2 S protein (residues 1-1212 with stabilizing mutations R684G, R685S, R678G, K998P and V999 (SARS-CoV-2) (UniProt P0DTC2)). Nature of the test: ELISA; ELISA-like solid-phase binding: ligands coated on 96-well plates in TBS, 6 h RT (S protein 20 µg/ml, vitronectin 5 µg/ml, fibrinogen 20 µg/ml, fibronectin 10 µg/ml); velcro-tagged integrins at 10 µg/ml in 20 mM Hepes, 150 mM NaCl, 1 mM MnCl2, pH 7.2, 2 h RT; detected by biotinylated anti-velcro antibody, streptavidin-HRP, ABTS, 405 nm. A general note: An ELISA detects its analyte on a solid surface through an enzyme-linked reagent.

“velcro-tagged integrin α5β1 (from UniProt P08648 42-995; P05556 21-728) (receptor)” registered a fold weaker than the binding to the physiological ligand (fibronectin) of less than 10 fold.
